Usually Kd stands for the equilibrium constant for the complex coming apart. Low readings indicate higher affinity, high ones lower affinity.

In publication PMC11091212 (2024) one finds Kd data, which are given here for eight molecules.

The target in one assay is MFAP4_(C34S) (human, UniProt P55083 22-255, C34S). Put plainly: SPR; +Ca2+.
Assay [1] has as its target T1, Microfibril-associated glycoprotein 4 (human, UniProt P55083 22-255, intermolecular disulphide bond between C34 of two monomers; N-glycosylated at N87 and N137 (cryo-EM density)).
T1 chain: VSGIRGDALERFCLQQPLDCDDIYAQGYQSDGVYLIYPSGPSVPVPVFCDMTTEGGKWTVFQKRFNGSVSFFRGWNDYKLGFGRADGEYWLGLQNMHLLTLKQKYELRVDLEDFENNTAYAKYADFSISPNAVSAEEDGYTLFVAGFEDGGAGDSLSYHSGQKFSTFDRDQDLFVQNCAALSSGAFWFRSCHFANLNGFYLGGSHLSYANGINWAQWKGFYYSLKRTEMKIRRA
Put plainly: SPR; -Ca2+. (SPR reads the build-up and loss of mass on a sensor chip optically.)

The target of assay [2] is T1, Microfibril-associated glycoprotein 4. Put plainly: SPR; Ca2+.

B1: latent transforming growth factor beta binding protein-4, short isoform (natural protein)
chain: RLGERLRVRFTPVVCGLRCVHGPTGSRCTPTCAPRNATSVDSGAPGGAAPGGPGFRAFLCPLICHNGGVCVKPDRCLCPPDFAGKFCQLHSSGARPPAPAVPGLTRSVYTMPLANHRDDEHGVASMVSVHVEHPQEASVVVHQVERVSGPWEEADAEAVARAEAAARAEAAAPYTVLAQSAPREDGYSDASGFGYCFRELRGGECASPLPGLRTQEVCCRGAGLAWGVHDCQLCSERLGNSERVSAPDGPCPTGFERVNGSCEDVDECATGGRCQHGECANTRGGYTCVCPDGFLLDSSRSSCISQHVISEAKGPCFRVLRDGGCSLPILRNITKQICCCSRVGKAWGRGCQLCPPFGSEGFREICPAGPGYHYSASDLRYNTRPLGQEPPRVSLSQPRTLPATSRPSAGFLPTHRLEPRPEPRPDPRPGPELPLPSIPAWTGPEIPESGPSSGMCQRNPQVCGPGRCISRPSGYTCACDSGFRLSPQGTRCIDVDECRRVPPPCAPGRCENSPGSFRCVCGPGFRAGPRAAECLDVDECHRVPPPCDLGRCENTPGSFLCVCPAGYQAAPHGASCQDVDECTQSPGLCGRGACKNLPGSFRCVCPAGFRGSACEEDVDECAQEPPPCGPGRCDNTAGSFHCACPAGFRSRGPGAPCQDVDECARSPPPCTYGRCENTEGSFQCVCPMGFQPNTAGSECEDVDECENHLACPGQECVNSPGSFQCRTCPSGHHLHRGRCTDVDECSSGAPPCGPHGHCTNTEGSFRCSCAPGYRAPSGRPGPCADVNECLEGDFCFPHGECLNTDGSFACTCAPGYRPGPRGASCLDVDECSEEDLCQSGICTNTDGSFECICPPGHRAGPDLASCLDVDECRERGPALCGSQRCENSPGSYRCVRDCDPGYHAGPEGTCDDVDECQEYGPEICGAQRCENTPGSYRCTPACDPGYQPTPGGGCQDVDECRNRSFCGAHAVCQNLPGSFQCLCDQGYEGARDGRHCVDVNECETLQGVCGAALCENVEGSFLCVCPNSPEEFDPMTGRCVPPRTSAGTFPGSQPQAPASPVLPARPPPPPLPRRPSTPRQGPVGSGRRECYFDTAAPDACDNILARNVTWQECCCTVGEGWGSGCRIQQCPGTETAEYQSLCPHGRGYLAPSGDLSLRRDVDECQLFRDQVCKSGVCVNTAPGYSCYCSNGYYYHTQRLECIDNDECADEEPACEGGRCVNTVGSYHCTCEPPLVLDGSQRRCVSNESQSLDDNLGVCWQEVGADLVCSHPRLDRQATYTECCCLYGEAWGMDCALCPAQDSDDFEALCNVLRPPAYSPPRPGGFGLPYEYGPDLGPPYQGLPYGPELYPPPALPYDPYPPPPGPFARREAPYGAPRFDMPDFEDDGGPYGESEAPAPPGPGTRWPYRSRDTRRSFPEPEEPPEGGSYAGSLAEPYEELEAEECGILDGCTNGRCVRVPEGFTCRCFDGYRLDMTRMACVDINECDEAEAASPLCVNARCLNTDGSFRCICRPGFAPTHQPHHCAPARPRA
For B1, the Kd was determined as 19 nM with MFAP4_(C34S) and 22 nM in assay [1].

B2: recombinant human tropoelastin (natural protein)
chain: GGVPGAIPGGVPGGVFYPGAGLGALGGGALGPGGKPLKPVPGGLAGAGLGAGLGAFPAVTFPGALVPGGVADAAAAYKAAKAGAGLGGVPGVGGLGVSAGAVVPQPGAGVKPGKVPGVGLPGVYPGGVLPGARFPGVGVLPGVPTGAGVKPKAPGVGGAFAGIPGVGPFGGPQPGVPLGYPIKAPKLPGGYGLPYTTGKLPYGYGPGGVAGAAGKAGYPTGTGVGPQAAAAAAAKAAAKFGAGAAGVLPGVGGAGVPGVPGAIPGIGGIAGVGTPAAAAAAAAAAKAAKYGAAAGLVPGGPGFGPGVVGVPGAGVPGVGVPGAGIPVVPGAGIPGAAVPGVVSPEAAAKAAAKAAKYGARPGVGVGGIPTYGVGAGGFPGFGVGVGGIPGVAGVPGVGGVPGVGGVPGVGISPEAQAAAAAKAAKYGAAGAGVLGGLVPGAPGAVPGVPGTGGVPGVGTPAAAAAKAAAKAAQFGLVPGVGVAPGVGVAPGVGVAPGVGLAPGVGVAPGVGVAPGVGVAPGIGPGGVAAAAKSAAKVAAKAQLRAAAGLGAGIPGLGVGVGVPGLGVGAGVPGLGVGAGVPGFGAGADEGVRRSLSPELREGDPSSSQHLPSTPSSPRVPGALAAAKAAKYGAAVPGVLGGLGALGGVGIPGGVVGAGPAAAAAAAKAAAKAAQFGLVGAAGLGGLGVGGLGVPGVGGLGGIPPAAAAKAAKYGAAGLGGVLGGAGQFPLGGVAARPGFGLSPIFPGGACLGKACGRKRK
B2 came in with an equilibrium dissociation constant (Kd) with MFAP4_(C34S) of 38 nM.

B3: latent transforming growth factor beta binding protein-4, long isoform (natural protein)
chain: ASPSPSPSQVVEVPGVPSRPASVAVCRCCPGQTSRRSRCIRAFCRVRSCQPKKCAGPQRCLNPVPAVPSPSPSVRKRQVSLNWQPLTLQEARALLKRRRPRGPGGRGLLRRRPPQRAPAGKAPVLCPLICHNGGVCVKPDRCLCPPDFAGKFCQLHSSGARPPAPAVPGLTRSVYTMPLANHRDDEHGVASMVSVHVEHPQEASVVVHQVERVSGPWEEADAEAVARAEAAARAEAAAPYTVLAQSAPREDGYSDASGFGYCFRELRGGECASPLPGLRTQEVCCRGAGLAWGVHDCQLCSERLGNSERVSAPDGPCPTGFERVNGSCEDVDECATGGRCQHGECANTRGGYTCVCPDGFLLDSSRSSCISQHVISEAKGPCFRVLRDGGCSLPILRNITKQICCCSRVGKAWGRGCQLCPPFGSEGFREICPAGPGYHYSASDLRYNTRPLGQEPPRVSLSQPRTLPATSRPSAGFLPTHRLEPRPEPRPDPRPGPELPLPSIPAWTGPEIPESGPSSGMCQRNPQVCGPGRCISRPSGYTCACDSGFRLSPQGTRCIDVDECRRVPPPCAPGRCENSPGSFRCVCGPGFRAGPRAAECLDVDECHRVPPPCDLGRCENTPGSFLCVCPAGYQAAPHGASCQDVDECTQSPGLCGRGACKNLPGSFRCVCPAGFRGSACEEDVDECAQEPPPCGPGRCDNTAGSFHCACPAGFRSRGPGAPCQDVDECARSPPPCTYGRCENTEGSFQCVCPMGFQPNTAGSECEDVDECENHLACPGQECVNSPGSFQCRTCPSGHHLHRGRCTDVDECSSGAPPCGPHGHCTNTEGSFRCSCAPGYRAPSGRPGPCADVNECLEGDFCFPHGECLNTDGSFACTCAPGYRPGPRGASCLDVDECSEEDLCQSGICTNTDGSFECICPPGHRAGPDLASCLDVDECRERGPALCGSQRCENSPGSYRCVRDCDPGYHAGPEGTCDDVDECQEYGPEICGAQRCENTPGSYRCTPACDPGYQPTPGGGCQDVDECRNRSFCGAHAVCQNLPGSFQCLCDQGYEGARDGRHCVDVNECETLQGVCGAALCENVEGSFLCVCPNSPEEFDPMTGRCVPPRTSAGTFPGSQPQAPASPVLPARPPPPPLPRRPSTPRQGPVGSGRRECYFDTAAPDACDNILARNVTWQECCCTVGEGWGSGCRIQQCPGTETAEYQSLCPHGRGYLAPSGDLSLRRDVDECQLFRDQVCKSGVCVNTAPGYSCYCSNGYYYHTQRLECIDNDECADEEPACEGGRCVNTVGSYHCTCEPPLVLDGSQRRCVSNESQSLDDNLGVCWQEVGADLVCSHPRLDRQATYTECCCLYGEAWGMDCALCPAQDSDDFEALCNVLRPPAYSPPRPGGFGLPYEYGPDLGPPYQGLPYGPELYPPPALPYDPYPPPPGPFARREAPYGAPRFDMPDFEDDGGPYGESEAPAPPGPGTRWPYRSRDTRRSFPEPEEPPEGGSYAGSLAEPYEELEAEECGILDGCTNGRCVRVPEGFTCRCFDGYRLDMTRMACVDINECDEAEAASPLCVNARCLNTDGSFRCICRPGFAPTHQPHHCAPARPRA
For B3, the figures for the dissociation constant (Kd) (with MFAP4_(C34S); in assay [1]) were 15 nM and 20 nM, respectively.

B4: recombinant N-terminal half of fibrillin-1 (domain or fragment)
chain: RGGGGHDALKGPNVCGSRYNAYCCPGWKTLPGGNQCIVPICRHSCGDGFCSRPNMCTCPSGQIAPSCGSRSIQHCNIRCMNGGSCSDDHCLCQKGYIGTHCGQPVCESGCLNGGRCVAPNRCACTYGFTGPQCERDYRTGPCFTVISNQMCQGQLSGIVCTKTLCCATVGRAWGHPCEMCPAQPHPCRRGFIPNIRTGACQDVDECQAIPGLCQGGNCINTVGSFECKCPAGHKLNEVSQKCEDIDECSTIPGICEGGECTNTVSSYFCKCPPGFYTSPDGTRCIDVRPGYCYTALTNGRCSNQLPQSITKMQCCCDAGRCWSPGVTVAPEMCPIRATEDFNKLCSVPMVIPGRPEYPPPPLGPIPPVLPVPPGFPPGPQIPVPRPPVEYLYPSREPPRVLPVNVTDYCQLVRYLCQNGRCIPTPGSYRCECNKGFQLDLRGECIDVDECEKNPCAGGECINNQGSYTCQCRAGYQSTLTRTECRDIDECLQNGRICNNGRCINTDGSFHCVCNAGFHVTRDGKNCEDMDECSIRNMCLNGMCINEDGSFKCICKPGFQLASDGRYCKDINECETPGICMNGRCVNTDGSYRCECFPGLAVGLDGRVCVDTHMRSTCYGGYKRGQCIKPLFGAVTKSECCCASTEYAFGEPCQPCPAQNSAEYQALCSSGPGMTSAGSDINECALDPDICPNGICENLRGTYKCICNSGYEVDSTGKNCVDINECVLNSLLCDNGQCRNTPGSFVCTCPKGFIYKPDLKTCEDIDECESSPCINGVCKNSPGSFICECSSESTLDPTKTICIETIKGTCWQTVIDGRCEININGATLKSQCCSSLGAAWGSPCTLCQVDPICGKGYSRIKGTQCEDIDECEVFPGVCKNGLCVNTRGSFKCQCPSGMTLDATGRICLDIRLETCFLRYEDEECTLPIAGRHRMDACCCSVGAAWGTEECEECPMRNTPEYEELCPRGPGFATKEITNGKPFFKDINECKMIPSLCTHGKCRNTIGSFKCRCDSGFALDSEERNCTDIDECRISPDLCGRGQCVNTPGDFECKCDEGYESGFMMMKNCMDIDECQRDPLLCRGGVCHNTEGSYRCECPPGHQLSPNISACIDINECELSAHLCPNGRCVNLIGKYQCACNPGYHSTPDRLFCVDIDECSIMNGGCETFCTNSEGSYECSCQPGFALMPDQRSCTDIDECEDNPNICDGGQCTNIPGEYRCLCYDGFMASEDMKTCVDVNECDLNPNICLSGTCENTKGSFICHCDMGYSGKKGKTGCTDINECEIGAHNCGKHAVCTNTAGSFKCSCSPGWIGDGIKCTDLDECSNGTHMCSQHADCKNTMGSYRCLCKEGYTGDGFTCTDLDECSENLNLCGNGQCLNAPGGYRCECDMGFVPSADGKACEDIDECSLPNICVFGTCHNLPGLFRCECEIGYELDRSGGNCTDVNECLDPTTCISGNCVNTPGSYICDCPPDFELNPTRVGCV
In the assay with MFAP4_(C34S), B4 gave an equilibrium dissociation constant (Kd) of 1.5 nM.

B5: N-terminal half of LTBP4L (domain or fragment)
chain: ASPSPSPSQVVEVPGVPSRPASVAVCRCCPGQTSRRSRCIRAFCRVRSCQPKKCAGPQRCLNPVPAVPSPSPSVRKRQVSLNWQPLTLQEARALLKRRRPRGPGGRGLLRRRPPQRAPAGKAPVLCPLICHNGGVCVKPDRCLCPPDFAGKFCQLHSSGARPPAPAVPGLTRSVYTMPLANHRDDEHGVASMVSVHVEHPQEASVVVHQVERVSGPWEEADAEAVARAEAAARAEAAAPYTVLAQSAPREDGYSDASGFGYCFRELRGGECASPLPGLRTQEVCCRGAGLAWGVHDCQLCSERLGNSERVSAPDGPCPTGFERVNGSCEDVDECATGGRCQHGECANTRGGYTCVCPDGFLLDSSRSSCISQHVISEAKGPCFRVLRDGGCSLPILRNITKQICCCSRVGKAWGRGCQLCPPFGSEGFREICPAGPGYHYSASDLRYNTRPLGQEPPRVSLSQPRTLPATSRPSAGFLPTHRLEPRPEPRPDPRPGPELPLPSIPAWTGPEIPESGPSSGMCQRNPQVCGPGRCISRPSGYTCACDSGFRLSPQGTRCIDVDECRRVPPPCAPGRCENSPGSFRCVCGPGFRAGPRAAECLDVDECHRVPPPCDLGRCENTPGSFLCVCPAGYQAAPHGASCQDVDECTQSPGLCGRGACKNLPGSFRCVCPAGFRGSACEEDVDECAQEPPPCGPGRCDNTAGSFHCACPAGFRSRGPGAPCQ
The molecule B5 gave a Kd in assay [2] of 19 nM.

B6: fibulin-5 (natural protein)
chain: QAQCTNGFDLDRQSGQCLDIDECRTIPEACRGDMMCVNQNGGYLCIPRTNPVYRGPYSNPYSTPYSGPYPAAAPPLSAPNYPTISRPLICRFGYQMDESNQCVDVDECATDSHQCNPTQICINTEGGYTCSCTDGYWLLEGQCLDIDECRYGYCQQLCANVPGSYSCTCNPGFTLNEDGRSCQDVNECATENPCVQTCVNTYGSFICRCDPGYELEEDGVHCSDMDECSFSEFLCQHECVNQPGTYFCSCPPGYILLDDNRSCQDINECEHRNHTCNLQQTCYNLQGGFKCIDPIRCEEPYLRISDNRCMCPAENPGCRDQPFTILYRDMDVVSGRSVPADIFQMQATTRYPGAYYIFQIKSGNEGREFYMRQTGPISATLVMTRPIKGPREIQLDLEMITVNTVINFRGSSVIRLRIYVSQYPF
Consider B6, for which binding in assay [1] was put at a Kd of 3400 nM.

B7: fibrillin-1 centre region fragment rF1M (domain or fragment)
chain: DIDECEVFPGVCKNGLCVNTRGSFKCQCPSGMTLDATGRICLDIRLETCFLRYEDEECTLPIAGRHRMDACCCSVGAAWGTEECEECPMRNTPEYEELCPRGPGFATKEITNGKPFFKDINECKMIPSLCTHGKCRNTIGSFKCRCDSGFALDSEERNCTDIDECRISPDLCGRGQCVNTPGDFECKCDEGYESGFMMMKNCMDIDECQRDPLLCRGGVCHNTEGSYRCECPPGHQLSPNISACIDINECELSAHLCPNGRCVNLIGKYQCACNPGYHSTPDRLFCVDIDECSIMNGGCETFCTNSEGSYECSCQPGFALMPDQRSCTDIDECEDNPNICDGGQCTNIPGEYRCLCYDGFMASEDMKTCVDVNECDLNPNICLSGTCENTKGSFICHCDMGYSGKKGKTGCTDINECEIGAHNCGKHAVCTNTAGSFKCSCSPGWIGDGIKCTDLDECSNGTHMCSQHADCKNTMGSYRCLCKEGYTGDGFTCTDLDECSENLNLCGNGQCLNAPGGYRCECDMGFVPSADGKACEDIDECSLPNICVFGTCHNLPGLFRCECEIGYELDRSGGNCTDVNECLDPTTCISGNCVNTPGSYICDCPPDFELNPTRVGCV
modifications: limits not printed (cited paper); approximate centre region, set at calcium-binding EGF domain boundaries from the domain before TB4 to the one before TB5; Ca2+ bound, HEK-type glycosylation and disulphides likely
Take B7: the Kd with MFAP4_(C34S) was 1 nM.

B8: fibulin-4 (natural protein)
chain: SASPQDSEEPDSYTECTDGYEWDPDSQHCRDVNECLTIPEACKGEMKCINHYGGYLCLPRSAAVINDLHGEGPPPPVPPAQHPNPCPPGYEPDDQDSCVDVDECAQALHDCRPSQDCHNLPGSYQCTCPDGYRKIGPECVDIDECRYRYCQHRCVNLPGSFRCQCEPGFQLGPNNRSCVDVNECDMGAPCEQRCFNSYGTFLCRCHQGYELHRDGFSCSDIDECSYSSYLCQYRCINEPGRFSCHCPQGYQLLATRLCQDIDECESGAHQCSEAQTCVNFHGGYRCVDTNRCVEPYIQVSENRCLCPASNPLCREQPSSIVHRYMTITSERSVPADVFQIQATSVYPGAYNAFQIRAGNSQGDFYIRQINNVSAMLVLARPVTGPREYVLDLEMVTMNSLMSYRASSVLRLTVFVGAYTF
B8: the Kd with MFAP4_(C34S) turned out to be 90 nM.
